Biological target: U87MG
Test: flow cytometry, cell binding; human U87MG cells

B1: NOD201M (Fc fusion)
chain: GCPRPRGDNPPLTCSQDSDCLAGCVCGPNGFCGEPRVPITQNPCPPLKECPPCAAPDLLGGPSVFIFPPKIKDVLMISLSPMVTCVVVDVSEDDPDVQISWFVNNVEVHTAQTQTHREDYNSTLRVVSALPIQHQDWMSGKEFKCKVNNRALPSPIEKTISKPRGPVRAPQVYVLPPPAEEMTKKEFSLTCMITGFLPAEIAVDWTSNGRTEQNYKNTATVLDSDGSYFMYSKLRVQKSTWERGSLFACSVVHEGLHNHLTTKTISRSLG
  Kd: 700 pM
